Test [1] concerns the target nle1_yeast RSA4 (UniProt P25382).
For test [2] the target is unchanged. This is another data set of the same source.

Sequence of UniProt P25382 (P25382 whole entry): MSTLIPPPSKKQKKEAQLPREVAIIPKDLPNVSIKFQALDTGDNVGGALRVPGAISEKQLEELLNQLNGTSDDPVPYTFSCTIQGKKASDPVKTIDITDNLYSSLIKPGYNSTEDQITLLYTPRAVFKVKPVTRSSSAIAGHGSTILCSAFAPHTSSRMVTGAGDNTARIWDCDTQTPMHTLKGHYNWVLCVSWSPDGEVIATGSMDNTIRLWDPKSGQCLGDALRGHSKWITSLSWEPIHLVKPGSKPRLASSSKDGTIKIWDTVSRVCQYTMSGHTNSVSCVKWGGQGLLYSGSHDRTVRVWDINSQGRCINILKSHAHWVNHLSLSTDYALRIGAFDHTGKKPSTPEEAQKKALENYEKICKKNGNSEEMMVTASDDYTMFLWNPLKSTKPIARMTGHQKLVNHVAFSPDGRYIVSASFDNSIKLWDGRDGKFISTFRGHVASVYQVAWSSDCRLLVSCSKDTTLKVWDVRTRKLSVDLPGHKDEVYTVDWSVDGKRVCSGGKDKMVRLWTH

Consider “Midasin (Saccharomyces cerevisiae), Q12019 S4712A;S4714A”, for which the “effect of a mutation on the interaction” value in test [1] is “decreasing interaction”; in test [2] it was “disrupting interaction”.
Turning to “Midasin (Saccharomyces cerevisiae), Q12019 S4712T”, the “effect of a mutation on the interaction” value in test [2] is “decreasing interaction”.

(Values after IntAct's records for PubMed 19737519.)
